The series has as its target T1, procalcitonin (UniProt P01258 26-141).
T1 sequence: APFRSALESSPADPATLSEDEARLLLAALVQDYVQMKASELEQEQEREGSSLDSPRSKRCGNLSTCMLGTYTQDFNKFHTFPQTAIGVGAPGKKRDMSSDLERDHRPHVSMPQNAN
Put plainly: electrochemical IDE sensor.

As for GGCGCCGTCAAGGCATTACAATTACGGATATGAACTCGAC (ssDNA, 5'-SH (thiol)) [complementary aptamer], the binding result was “no binding”.

These data come from paper PMC11388503.
